1 substance from paper PMC9772109 can be followed below.

The target of the assay is H10 HA trimer of A/Jiangxi-Donghu/346/2013 (H10 JD13) (influenza A virus A/Jiangxi-Donghu/346/2013 (H10N8)). Kind of assay: negative stain EM, 3D reconstruction.

As a reminder, the stoichiometry N is a count of units in the complex or per binding partner. Substance “H10 HA trimer of A/Jiangxi-Donghu/346/2013 (H10 JD13) (natural protein)” returned a stoichiometry N of 3.
